{"source": "the PETadex activity labels (doi:10.3390/polym4010617)", "proteins": {"B1": {"name": "unnamed (protein)", "chain": "MANPYERGPNPTNSSIEALRGPFRVDEERVSRLQARGFGGGTIYYPTDNNTFGAVAISPGYTGTQSSISWLGERLASHGFVVMTIDTNTTLDQPDSRASQLDAALDYMVEDSSYSVRNRIDSSRLAAMGHSMGGGGTLRLAERRPDLQAAIPLTPWHTDKTWGSVRVPTLIIGAENDTIASVRSHSEPFYNSLPGSLDKAYLELDGASHFAPNLSNTTIAKYSISWLKRFVDDDTRYTQFLCPGPSTGWGSDVEEYRSTCPF"}}, "key": {"PLA [1]": {"substrate": "PLA", "test": "Proxy for plastic degradation [HPLC-UV]", "conditions": "pH 7; 37 °C"}, "pNP-C2": {"substrate": "pNP-C2", "test": "Proxy for plastic degradation [Specific activity]", "conditions": "pH 7"}, "pNPB": {"substrate": "pNPB", "test": "Proxy for plastic degradation [Specific activity]", "conditions": "pH 7"}, "PLA [2]": {"substrate": "PLA", "test": "Proxy for plastic degradation [Released monomer concentration (HPLC/LC-MS) (LA )]", "conditions": "pH 7"}, "[3]": {"test": "Proxy for plastic degradation [Released monomer concentration (HPLC/LC-MS) (BA)] (mmol/mol of enzyme)", "conditions": "pH 7"}, "[4]": {"test": "Proxy for plastic degradation [Released monomer concentration (HPLC/LC-MS) (TA)] (mmol/mol of enzyme)", "conditions": "pH 7"}, "PET [5]": {"substrate": "PET", "test": "Proxy for plastic degradation [Released monomer concentration (HPLC/LC-MS) (TA)] (mmol/mol of enzyme)", "conditions": "pH 7"}, "[6]": {"test": "Proxy for plastic degradation [Released monomer concentration (HPLC/LC-MS) (HEB)] (mmol/mol of enzyme)", "conditions": "pH 7"}, "[7]": {"test": "Proxy for plastic degradation [Released monomer concentration (HPLC/LC-MS) (MHET)] (mmol/mol of enzyme)", "conditions": "pH 7"}, "PET [8]": {"substrate": "PET", "test": "Proxy for plastic degradation [Released monomer concentration (HPLC/LC-MS) (MHET)] (mmol/mol of enzyme)", "conditions": "pH 7"}}, "data": [{"protein": "B1", "values": [{"measurement": "Proxy for plastic degradation", "setting": "PLA [1]", "value": 14.5, "unit": "µM"}, {"measurement": "Proxy for plastic degradation", "setting": "pNP-C2", "value": 550, "unit": "U/mg"}, {"measurement": "Proxy for plastic degradation", "setting": "pNPB", "value": 500, "unit": "U/mg"}, {"measurement": "Proxy for plastic degradation", "setting": "PLA [2]", "value": 14.5, "unit": "µM"}, {"measurement": "Proxy for plastic degradation", "setting": "[3]", "value": 58}, {"measurement": "Proxy for plastic degradation", "setting": "[4]", "value": 18}, {"measurement": "Proxy for plastic degradation", "setting": "PET [5]", "value": 21.5}, {"measurement": "Proxy for plastic degradation", "setting": "[6]", "value": 53}, {"measurement": "Proxy for plastic degradation", "setting": "[7]", "value": 35}, {"measurement": "Proxy for plastic degradation", "setting": "PET [8]", "value": 19.8}]}]}
